Test results published in patent US20160272683A1 (Novo Nordisk, published 2016).
Numbered stars: 1 amine (or outer) side, 2 acyl side, 3 side chain; on linkers, the order of the positions; unused ones are H or OH. * marks the point of attachment. C20 diacid = O=C(O)CCCCCCCCCCCCCCCCCCC(=O)*; C18 diacid = O=C(O)CCCCCCCCCCCCCCCCC(=O)*; γGlu = O=C(O)[C@H](CCC(=O)[*:2])N[*:1]

T1: human amylin 3(a) receptor (human calcitonin receptor co-expressed with RAMP-3) (human, UniProt P30988 25-474; O60896 24-148, limits assumed)
T1 sequence (looked up) 1: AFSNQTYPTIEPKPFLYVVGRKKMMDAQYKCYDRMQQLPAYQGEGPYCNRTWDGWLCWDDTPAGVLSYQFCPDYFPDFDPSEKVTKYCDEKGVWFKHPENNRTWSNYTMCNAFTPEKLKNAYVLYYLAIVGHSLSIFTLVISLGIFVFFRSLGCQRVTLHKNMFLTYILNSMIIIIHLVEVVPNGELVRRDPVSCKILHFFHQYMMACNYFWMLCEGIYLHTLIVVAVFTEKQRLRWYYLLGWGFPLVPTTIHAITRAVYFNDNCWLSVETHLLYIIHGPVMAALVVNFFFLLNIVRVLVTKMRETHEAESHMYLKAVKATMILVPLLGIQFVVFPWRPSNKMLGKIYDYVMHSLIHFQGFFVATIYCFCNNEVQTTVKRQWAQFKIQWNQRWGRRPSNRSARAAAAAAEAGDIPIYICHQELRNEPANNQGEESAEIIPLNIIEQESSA
T1 sequence (looked up) 2: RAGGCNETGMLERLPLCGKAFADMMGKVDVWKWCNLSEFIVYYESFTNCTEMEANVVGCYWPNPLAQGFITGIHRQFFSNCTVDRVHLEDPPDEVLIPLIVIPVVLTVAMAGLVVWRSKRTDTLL

T2: human calcitonin receptor (human, UniProt P30988 25-474)
T2 sequence (looked up): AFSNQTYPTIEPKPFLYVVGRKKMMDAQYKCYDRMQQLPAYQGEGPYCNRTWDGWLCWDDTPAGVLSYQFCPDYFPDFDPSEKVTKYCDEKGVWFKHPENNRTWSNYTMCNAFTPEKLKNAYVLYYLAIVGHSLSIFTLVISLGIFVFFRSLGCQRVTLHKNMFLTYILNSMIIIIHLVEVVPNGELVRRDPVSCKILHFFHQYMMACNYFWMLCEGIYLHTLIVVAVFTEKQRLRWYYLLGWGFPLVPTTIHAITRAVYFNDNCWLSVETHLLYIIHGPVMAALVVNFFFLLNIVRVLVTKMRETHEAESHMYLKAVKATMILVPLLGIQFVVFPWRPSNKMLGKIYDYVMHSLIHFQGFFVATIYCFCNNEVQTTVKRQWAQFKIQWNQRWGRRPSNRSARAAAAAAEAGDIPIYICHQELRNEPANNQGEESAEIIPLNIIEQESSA

B1: [N-terminal(C20 diacid-gGlu), des1, 23Y, 30S, 31G, 34K, C-terminal(-)]mimylin (peptide)
peptide: {C20 diacid-γGlu}-ASELSTAALGRLSAELHELATYPRTETGSGSPK-OH
SMILES: CC(C)C[C@H](NC(=O)[C@H](C)NC(=O)[C@H](C)NC(=O)[C@@H](NC(=O)[C@H](CO)NC(=O)[C@H](CC(C)C)NC(=O)[C@H](CCC(=O)O)NC(=O)[C@H](CO)NC(=O)[C@H](C)NC(=O)CC[C@H](NC(=O)CCCCCCCCCCCCCCCCCCC(=O)O)C(=O)O)[C@@H](C)O)C(=O)NCC(=O)N[C@@H](CCCNC(=N)N)C(=O)N[C@@H](CC(C)C)C(=O)N[C@@H](CO)C(=O)N[C@@H](C)C(=O)N[C@@H](CCC(=O)O)C(=O)N[C@@H](CC(C)C)C(=O)N[C@@H](Cc1c[nH]cn1)C(=O)N[C@@H](CCC(=O)O)C(=O)N[C@@H](CC(C)C)C(=O)N[C@@H](C)C(=O)N[C@H](C(=O)N[C@@H](Cc1ccc(O)cc1)C(=O)N1CCC[C@H]1C(=O)N[C@@H](CCCNC(=N)N)C(=O)N[C@H](C(=O)N[C@@H](CCC(=O)O)C(=O)N[C@H](C(=O)NCC(=O)N[C@@H](CO)C(=O)NCC(=O)N[C@@H](CO)C(=O)N1CCC[C@H]1C(=O)N[C@@H](CCCCN)C(=O)O)[C@@H](C)O)[C@@H](C)O)[C@@H](C)O
B2: [N-terminal(C18 diacid-gGlu), des1, 4Q, 16Q, 30S, 31G]mimylin (peptide)
peptide: {C18 diacid-γGlu}-ASQLSTAALGRLSAQLHELATLPRTETGSGSP-NH2
SMILES: CC(C)C[C@H](NC(=O)[C@H](C)NC(=O)[C@H](C)NC(=O)[C@@H](NC(=O)[C@H](CO)NC(=O)[C@H](CC(C)C)NC(=O)[C@H](CCC(N)=O)NC(=O)[C@H](CO)NC(=O)[C@H](C)NC(=O)CC[C@H](NC(=O)CCCCCCCCCCCCCCCCC(=O)O)C(=O)O)[C@@H](C)O)C(=O)NCC(=O)N[C@@H](CCCNC(=N)N)C(=O)N[C@@H](CC(C)C)C(=O)N[C@@H](CO)C(=O)N[C@@H](C)C(=O)N[C@@H](CCC(N)=O)C(=O)N[C@@H](CC(C)C)C(=O)N[C@@H](Cc1c[nH]cn1)C(=O)N[C@@H](CCC(=O)O)C(=O)N[C@@H](CC(C)C)C(=O)N[C@@H](C)C(=O)N[C@H](C(=O)N[C@@H](CC(C)C)C(=O)N1CCC[C@H]1C(=O)N[C@@H](CCCNC(=N)N)C(=O)N[C@H](C(=O)N[C@@H](CCC(=O)O)C(=O)N[C@H](C(=O)NCC(=O)N[C@@H](CO)C(=O)NCC(=O)N[C@@H](CO)C(=O)N1CCC[C@H]1C(N)=O)[C@@H](C)O)[C@@H](C)O)[C@@H](C)O
B3: [N-terminal(C20 diacid-gGlu), des1, 12H, 25H, 30S, 31G]mimylin (peptide)
peptide: {C20 diacid-γGlu}-ASELSTAALGHLSAELHELATLPHTETGSGSP-NH2
SMILES: CC(C)C[C@H](NC(=O)[C@H](C)NC(=O)[C@H](C)NC(=O)[C@@H](NC(=O)[C@H](CO)NC(=O)[C@H](CC(C)C)NC(=O)[C@H](CCC(=O)O)NC(=O)[C@H](CO)NC(=O)[C@H](C)NC(=O)CC[C@H](NC(=O)CCCCCCCCCCCCCCCCCCC(=O)O)C(=O)O)[C@@H](C)O)C(=O)NCC(=O)N[C@@H](Cc1c[nH]cn1)C(=O)N[C@@H](CC(C)C)C(=O)N[C@@H](CO)C(=O)N[C@@H](C)C(=O)N[C@@H](CCC(=O)O)C(=O)N[C@@H](CC(C)C)C(=O)N[C@@H](Cc1c[nH]cn1)C(=O)N[C@@H](CCC(=O)O)C(=O)N[C@@H](CC(C)C)C(=O)N[C@@H](C)C(=O)N[C@H](C(=O)N[C@@H](CC(C)C)C(=O)N1CCC[C@H]1C(=O)N[C@@H](Cc1c[nH]cn1)C(=O)N[C@H](C(=O)N[C@@H](CCC(=O)O)C(=O)N[C@H](C(=O)NCC(=O)N[C@@H](CO)C(=O)NCC(=O)N[C@@H](CO)C(=O)N1CCC[C@H]1C(N)=O)[C@@H](C)O)[C@@H](C)O)[C@@H](C)O
B4: [N-terminal(C18 diacid), 5I]mimylin (peptide)
peptide: {C18 diacid}-EASEISTAALGRLSAELHELATLPRTETGPESP-NH2
SMILES: CC[C@H](C)[C@H](NC(=O)[C@H](CCC(=O)O)NC(=O)[C@H](CO)NC(=O)[C@H](C)NC(=O)[C@H](CCC(=O)O)NC(=O)CCCCCCCCCCCCCCCCC(=O)O)C(=O)N[C@@H](CO)C(=O)N[C@H](C(=O)N[C@@H](C)C(=O)N[C@@H](C)C(=O)N[C@@H](CC(C)C)C(=O)NCC(=O)N[C@@H](CCCNC(=N)N)C(=O)N[C@@H](CC(C)C)C(=O)N[C@@H](CO)C(=O)N[C@@H](C)C(=O)N[C@@H](CCC(=O)O)C(=O)N[C@@H](CC(C)C)C(=O)N[C@@H](Cc1c[nH]cn1)C(=O)N[C@@H](CCC(=O)O)C(=O)N[C@@H](CC(C)C)C(=O)N[C@@H](C)C(=O)N[C@H](C(=O)N[C@@H](CC(C)C)C(=O)N1CCC[C@H]1C(=O)N[C@@H](CCCNC(=N)N)C(=O)N[C@H](C(=O)N[C@@H](CCC(=O)O)C(=O)N[C@H](C(=O)NCC(=O)N1CCC[C@H]1C(=O)N[C@@H](CCC(=O)O)C(=O)N[C@@H](CO)C(=O)N1CCC[C@H]1C(N)=O)[C@@H](C)O)[C@@H](C)O)[C@@H](C)O)[C@@H](C)O
B5: [N-terminal(C20 diacid-gGlu), des1, 9S, 23Y, 30S, 31G, 33Y]mimylin (peptide)
peptide: {C20 diacid-γGlu}-ASELSTASLGRLSAELHELATYPRTETGSGSY-NH2
SMILES: CC(C)C[C@H](NC(=O)[C@H](CO)NC(=O)[C@H](C)NC(=O)[C@@H](NC(=O)[C@H](CO)NC(=O)[C@H](CC(C)C)NC(=O)[C@H](CCC(=O)O)NC(=O)[C@H](CO)NC(=O)[C@H](C)NC(=O)CC[C@H](NC(=O)CCCCCCCCCCCCCCCCCCC(=O)O)C(=O)O)[C@@H](C)O)C(=O)NCC(=O)N[C@@H](CCCNC(=N)N)C(=O)N[C@@H](CC(C)C)C(=O)N[C@@H](CO)C(=O)N[C@@H](C)C(=O)N[C@@H](CCC(=O)O)C(=O)N[C@@H](CC(C)C)C(=O)N[C@@H](Cc1c[nH]cn1)C(=O)N[C@@H](CCC(=O)O)C(=O)N[C@@H](CC(C)C)C(=O)N[C@@H](C)C(=O)N[C@H](C(=O)N[C@@H](Cc1ccc(O)cc1)C(=O)N1CCC[C@H]1C(=O)N[C@@H](CCCNC(=N)N)C(=O)N[C@H](C(=O)N[C@@H](CCC(=O)O)C(=O)N[C@H](C(=O)NCC(=O)N[C@@H](CO)C(=O)NCC(=O)N[C@@H](CO)C(=O)N[C@@H](Cc1ccc(O)cc1)C(N)=O)[C@@H](C)O)[C@@H](C)O)[C@@H](C)O
B6: [N-terminal(C18 diacid-gGlu), des1, 6T, 9V, 30S, 31G]mimylin (peptide)
peptide: {C18 diacid-γGlu}-ASELTTAVLGRLSAELHELATLPRTETGSGSP-NH2
SMILES: CC(C)C[C@H](NC(=O)[C@H](CCC(=O)O)NC(=O)[C@H](Cc1c[nH]cn1)NC(=O)[C@H](CC(C)C)NC(=O)[C@H](CCC(=O)O)NC(=O)[C@H](C)NC(=O)[C@H](CO)NC(=O)[C@H](CC(C)C)NC(=O)[C@H](CCCNC(=N)N)NC(=O)CNC(=O)[C@H](CC(C)C)NC(=O)[C@@H](NC(=O)[C@H](C)NC(=O)[C@@H](NC(=O)[C@@H](NC(=O)[C@H](CC(C)C)NC(=O)[C@H](CCC(=O)O)NC(=O)[C@H](CO)NC(=O)[C@H](C)NC(=O)CC[C@H](NC(=O)CCCCCCCCCCCCCCCCC(=O)O)C(=O)O)[C@@H](C)O)[C@@H](C)O)C(C)C)C(=O)N[C@@H](C)C(=O)N[C@H](C(=O)N[C@@H](CC(C)C)C(=O)N1CCC[C@H]1C(=O)N[C@@H](CCCNC(=N)N)C(=O)N[C@H](C(=O)N[C@@H](CCC(=O)O)C(=O)N[C@H](C(=O)NCC(=O)N[C@@H](CO)C(=O)NCC(=O)N[C@@H](CO)C(=O)N1CCC[C@H]1C(N)=O)[C@@H](C)O)[C@@H](C)O)[C@@H](C)O
B7: [N-terminal(C20 diacid-gGlu), des1, 23Y, 30S, 31G, 34G, C-terminal(-)]mimylin (peptide)
peptide: {C20 diacid-γGlu}-ASELSTAALGRLSAELHELATYPRTETGSGSPG-OH
SMILES: CC(C)C[C@H](NC(=O)[C@H](C)NC(=O)[C@H](C)NC(=O)[C@@H](NC(=O)[C@H](CO)NC(=O)[C@H](CC(C)C)NC(=O)[C@H](CCC(=O)O)NC(=O)[C@H](CO)NC(=O)[C@H](C)NC(=O)CC[C@H](NC(=O)CCCCCCCCCCCCCCCCCCC(=O)O)C(=O)O)[C@@H](C)O)C(=O)NCC(=O)N[C@@H](CCCNC(=N)N)C(=O)N[C@@H](CC(C)C)C(=O)N[C@@H](CO)C(=O)N[C@@H](C)C(=O)N[C@@H](CCC(=O)O)C(=O)N[C@@H](CC(C)C)C(=O)N[C@@H](Cc1c[nH]cn1)C(=O)N[C@@H](CCC(=O)O)C(=O)N[C@@H](CC(C)C)C(=O)N[C@@H](C)C(=O)N[C@H](C(=O)N[C@@H](Cc1ccc(O)cc1)C(=O)N1CCC[C@H]1C(=O)N[C@@H](CCCNC(=N)N)C(=O)N[C@H](C(=O)N[C@@H](CCC(=O)O)C(=O)N[C@H](C(=O)NCC(=O)N[C@@H](CO)C(=O)NCC(=O)N[C@@H](CO)C(=O)N1CCC[C@H]1C(=O)NCC(=O)O)[C@@H](C)O)[C@@H](C)O)[C@@H](C)O

How the values were obtained:
[1] = biological target: T1, human amylin 3(a) receptor (human …); assay: cell-based or functional assay
[2] = biological target: T2, human calcitonin receptor; assay: cell-based or functional assay

Binder | hAmylin-R funct. EC50 (pM) [1] [pM] | hCTR funct. EC50 (pM) [2] [pM]
B1 | 239 | 88
B2 | 9 | 13
B3 | 26 | 12
B4 | 7 | 7
B5 | 37 | 41
B6 | 33 | 28
B7 | 187 | 64
{C20 diacid-γGlu}-ASELSTAALGRLSAELHELATYPRTETGSGSY-OH [[N-terminal(C20 diacid-gGlu), des1, 23Y, 30S, 31G, 33Y, C-terminal(-)]mimylin] | 461 | 127
{C18 diacid-γGlu}-ASEVSTAVLGRLSAELHELATLPRTETGSGSP-NH2 [[N-terminal(C18 diacid-gGlu), des1, 5V, 9V, 30S, 31G]mimylin] | 32 | 13
